Consider 1 substance from PMC4503349.

This test addresses Recombinant human calcineurin, comprising CnAα and CnB subunits (human) (UniProt Q08209).

As for “calmodulin (from UniProt P0DP23 1-149) (natural protein)”, the CaN phosphatase activity (malachite green, RIIP substrate) in a Ca2+/CM cross-titration; CaN:CM ratio that gives 50% activation at 500 μM Ca2+ (molar ratio (CaN:CM)) came to 1.
